Assay results published in patent US20100003756.

Legend:
Assay in all cases: cell_activity
[1] = test system: ZFN SBS 17622 (BAK) (synthetic); conditions: pair 17622/17623, MDCK cells, CEL-I/Surveyor
[2] = test system: ZFN SBS 17627 (BAK) (synthetic); conditions: pair 17627/17626, MDCK cells, CEL-I/Surveyor
[3] = test system: ZFN SBS 10077 (BAX) (synthetic); conditions: BAX ZFNs of Table 1 (pair 10077/10079 inferred), Bak-deficient CHO, 21 of 79 clones Bsl I assay
[4] = test system: ZFN SBS 17623 (BAK) (synthetic); conditions: pair 17622/17623, MDCK cells, CEL-I/Surveyor
[5] = test system: ZFN SBS 17626 (BAK) (synthetic); conditions: pair 17627/17626, MDCK cells, CEL-I/Surveyor
[6] = test system: ZFN SBS 10079 (BAX) (synthetic); conditions: BAX ZFNs of Table 1 (pair 10077/10079 inferred), Bak-deficient CHO, 21 of 79 clones Bsl I assay
[7] = test system: ZFN SBS 17659 (BAX) (synthetic); conditions: pair 17658/17659, MDCK cells, CEL-I/Surveyor
[8] = test system: ZFN SBS 17658 (BAX) (synthetic); conditions: pair 17658/17659, MDCK cells, CEL-I/Surveyor

AATGATGCAGCATGA (double strand) [BAK 17622 half-site]
activity (% alleles modified) [1]: 3.7

AGGGGTGGCTGGGTAG (double strand) [BAK 17627 half-site]
activity (% alleles modified) [2]: 1.1

CAGGGTGGCTGG (double strand) [BAX 10077 half-site]
activity (% clones modified) [3]: 27

CCGGTGGATCGCGCAGAG (double strand) [BAK 17623 half-site]
activity (% alleles modified) [4]: 3.7

GATCCACCGGGCAATGCA (double strand) [BAK 17626 half-site]
activity (% alleles modified) [5]: 1.1

GATCCAGACAAG (double strand) [BAX 10079 half-site]
activity (% clones modified) [6]: 27

GGTTGGGTGAGGCCTG (double strand) [BAX 17659 half-site]
activity (% alleles modified) [7]: 8

GTCCTGGATCCAGCC (double strand) [BAX 17658 half-site]
activity (% alleles modified) [8]: 8
